Residue numbers refer to the chain shown, from its start. Values belong to the binder of their own block, whether it stands above or below them.
Experiments:
[1] = target: T1, recombinant human EpCAM extracellular domain (human, UniProt P16422 24-265); assay: ELISA on human EpCAM at pH 6.0 after heating the antibody for 1 h at 4, 37, 45, 55 or 60 C
T1 construct: extracellular domain; Plate-coated antigen of the ELISAs; also called human EpCAM ECD; recombinant EpCAM antigen
T1 sequence (looked up): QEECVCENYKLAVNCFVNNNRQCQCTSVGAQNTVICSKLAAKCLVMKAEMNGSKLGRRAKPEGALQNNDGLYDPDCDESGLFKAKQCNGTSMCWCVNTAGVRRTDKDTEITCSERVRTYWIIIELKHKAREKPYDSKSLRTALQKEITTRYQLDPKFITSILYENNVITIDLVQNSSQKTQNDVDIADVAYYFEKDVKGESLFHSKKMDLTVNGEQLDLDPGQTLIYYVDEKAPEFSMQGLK
Method: The thermostability of the humanized conditionally active anti-EpCAM antibodies was evaluated by measuring their binding activities after heat treatment. The binding activities of the humanized conditionally active anti-EpCAM antibodies to human EpCAM after heat treatment for one (1) hour at different temperatures at pH 6.0 and pH 7.4 were measured by ELISA.
(§1) The ELISA assay was performed using the following protocol: [0388] 1) Coat ELISA plates with 100 μL of 0.5 μg/mL (06_20_17 and 06_28_17 Experiments) or 1 μg/mL (07_06_17 and 07_11_17 Experiments) recombinant EpCAM antigen in carbonate-bicarbonate coating buffer [0389] 2) Cover plates with sealing film and incubate overnight at 4° C. [0390] 3) Decant plates and tap out residual liquid on a stack of paper towels [0391] […] 5) Add 200 μL of various pH incubation buffers to the wells according to the sample map.

[2] = target: T2, cyno EpCAM (recombinant, ELISA antigen) (cynomolgus monkey); assay: direct binding ELISA, cyno EpCAM, pH 6.0 (printed as IC50)
T2 construct: extracellular domain; also called cynomolgus EpCAM extracellular domain

[3] = target: T2, cyno EpCAM (recombinant, ELISA antigen); assay: direct binding ELISA, cyno EpCAM, pH 7.4 (printed as IC50)
[4] = target: T2, cyno EpCAM (recombinant, ELISA antigen); assay: direct binding ELISA, cyno EpCAM; ratio of the printed IC50 at pH 7.4 to pH 6.0
[5] = target: T1, recombinant human EpCAM extracellular …; assay: direct binding ELISA, human EpCAM; ratio of the printed IC50 at pH 7.4 to pH 6.0
[6] = target: T1, recombinant human EpCAM extracellular …; assay: direct binding ELISA, human EpCAM, pH 6.0 (table prints IC50, the text paragraph 376 says EC50)
[7] = target: T1, recombinant human EpCAM extracellular …; assay: direct binding ELISA, human EpCAM, pH 7.4 (table prints IC50, the text paragraph 376 says EC50)
[8] = target: T1, recombinant human EpCAM extracellular …; assay: ELISA on human EpCAM, pH range 5.0 to 7.4
[9] = target: T3, human EpCAM expressed on cells (CHO, Colo205, 293) (human, UniProt P16422 24-314); assay: FACS on Colo205 cells, antibody at 1 ug/mL, pH 6.0 and pH 7.4
T3 construct: whole, on cells; also called CHO cells expressing human EpCAM; Colo205 cells expressing human EpCAM
T3 sequence (looked up): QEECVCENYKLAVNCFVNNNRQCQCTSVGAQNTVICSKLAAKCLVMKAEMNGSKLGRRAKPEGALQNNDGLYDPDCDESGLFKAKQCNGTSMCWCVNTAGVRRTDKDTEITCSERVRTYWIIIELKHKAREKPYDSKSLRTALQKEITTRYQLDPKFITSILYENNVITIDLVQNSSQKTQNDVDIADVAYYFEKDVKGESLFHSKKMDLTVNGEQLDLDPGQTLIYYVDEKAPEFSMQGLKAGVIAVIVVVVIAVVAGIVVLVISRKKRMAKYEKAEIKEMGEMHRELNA
Method: The binding activity of these anti-EpCAM antibodies to EpCAM expressing Colo205 cells were measured by fluorescence activated cell sorting (FACS) at two different pH values of 6.0 and 7.4. Different dosages of the antibodies of 10 μg/mL, 1 μg/mL, 0.1 μg/mL and 0.01 μg/mL were used.

[10] = target: T2, cyno EpCAM (recombinant, ELISA antigen); assay: ELISA, cyno EpCAM, pH 6.0
Method: (§2) The binding activities of the humanized conditionally active anti-EpCAM antibodies to cyno EpCAM were similarly measured. The EC50 for binding to the cyno EpCAM at pH 6.0 and pH 7.4 for the humanized conditionally active anti-EpCAM antibodies are summarized in Table 7.
as §1

[11] = target: T2, cyno EpCAM (recombinant, ELISA antigen); assay: ELISA, cyno EpCAM, pH 7.4
Method: as §2, §1

[12] = target: T1, recombinant human EpCAM extracellular …; assay: ELISA, human EpCAM, pH 6.0
Method: (§3) The binding activities of the humanized conditionally active anti-EpCAM antibodies to human EpCAM were measured by ELISA, using the template antibody BAP-1-5-01-06, as a control. The EC50 values of the humanized conditionally active anti-EpCAM antibodies for binding to human EpCAM at pH 6.0 and pH 7.4 are summarized in Table 5.
as §1

[13] = target: T1, recombinant human EpCAM extracellular …; assay: ELISA, human EpCAM, pH 7.4
Method: as §3, §1

[14] = target: T4, cyno EpCAM expressed on 293 cells (cynomolgus monkey); assay: FACS on 293 cells expressing cyno EpCAM, pH 6.0
T4 construct: whole, on cells; also called 293 cells expressing cyno EpCAM
Method: (§4) A similar FACS analysis was also carried out using 293 cells expressing cyno EpCAM. […] The EC50 values for binding to the 293 cells expressing cyno EpCAM by the humanized conditionally active anti-EpCAM antibodies are summarized in Table 11.

[15] = target: T4, cyno EpCAM expressed on 293 cells; assay: FACS on 293 cells expressing cyno EpCAM, pH 7.4
Method: as §4

[16] = target: T3, human EpCAM expressed on cells (CHO, …); assay: FACS on 293 cells expressing human EpCAM, pH 6.0
Method: (§5) A similar FACS analysis was also carried out using 293 cells expressing human EpCAM. […] The EC50 values for binding to the 293 cells expressing human EpCAM by the humanized conditionally active anti-EpCAM antibodies are summarized in Table 10.

[17] = target: T3, human EpCAM expressed on cells (CHO, …); assay: FACS on 293 cells expressing human EpCAM, pH 7.4
Method: as §5

[18] = target: T3, human EpCAM expressed on cells (CHO, …); assay: FACS on Colo205 cells expressing human EpCAM, pH 6.0
Method: (§6) Binding activities of the humanized conditionally active anti-EpCAM antibodies to Colo205 cells expressing human EpCAM were measured by FACS at pH 6.0 and pH 7.4. […] The EC50 values for binding to the Colo205 cells expressing human EpCAM by the humanized conditionally active anti-EpCAM antibodies are summarized in Table 9.

[19] = target: T3, human EpCAM expressed on cells (CHO, …); assay: FACS on Colo205 cells expressing human EpCAM, pH 7.4
Method: as §6

T4 sequence (Q1WER1 24-314): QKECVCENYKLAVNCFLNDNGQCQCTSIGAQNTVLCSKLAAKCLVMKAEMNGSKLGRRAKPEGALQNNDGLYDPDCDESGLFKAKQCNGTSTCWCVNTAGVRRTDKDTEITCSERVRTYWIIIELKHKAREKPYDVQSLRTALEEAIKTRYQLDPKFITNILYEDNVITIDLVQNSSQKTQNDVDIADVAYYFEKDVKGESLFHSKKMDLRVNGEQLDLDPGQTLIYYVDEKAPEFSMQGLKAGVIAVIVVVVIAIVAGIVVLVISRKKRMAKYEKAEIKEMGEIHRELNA

B1: 105.4-05-04 (antibody, V domains shown)
VH: EVQLVQSGAEVKKPGATVKISCKVSGYTFTSYWMHWIRQSPSRGLEWLGYIRPSTGYTEYNQKFKDRFTISRDDSKNTAYLQMNSLKTEDTAVYYCGRGDNWVGFANWGQGTLVTVSS
VL: EIVMTQSPATLSVSPGERATLSCSASSSISYMHWYQQKPGKAPKLLIYSTSNLASGVPSRFSGSGSGTDFTLTISSLQPEDFATYYCHQWSTYETFGQGTKVEIK
binding result [1]: binds

B2: BA-105-06-02 (antibody, V domains shown)
VH: B1 VH with S40P, S42G, R43K, L48I, D74N, A79L, K87R, T88A
VL: EIVLTQSPDFQSVTPKEKVTITCSASSSISYMHWYQQKPGKAPKLLIYSTSSLASGVPDRFSGSGSGTDFTLKISRVEAEDVGVYYCHQWSTYETFGQGTKVEIK
notes: Humanized
IC50 [2]: 0.152 µg/mL
IC50 [3]: 0.673 µg/mL
ratio (pH7.4/pH6.0) [4]: 4.44
ratio (pH7.4/pH6.0) [5]: 2.5
IC50 [6]: 0.105 µg/mL
IC50 [7]: 0.262 µg/mL

B4: BAP-105-01-01 (antibody, V domains shown)
VH: QVQLQQSGAELAKPGASVKVSCKASGYTFTSYWMHWVKQRPGQGLEWIGYIRPSTGYTEYNQKFKDKATLTADKSSSTAYMQLSSLTFEDSAVYYCGRGDNWVGFANWGQGTLVTVSA
VL: QIVLTQSPAIMSASLGEEIALTCSASSSISYMHWYQQKSGTSPKLLIYSTSNLASGVPSRFSGSGSGTFYSLTISSVEAEDAADYFCHQWSTYHTFGSGTKLEIK
notes: Non-conditionally active control; also called template antibody (WT)
EC50 [10]: 0.0112 µg/mL
EC50 [11]: 0.3 µg/mL
EC50 [12]: 0.00833 µg/mL
EC50 [13]: 0.00781 µg/mL
EC50 [14]: 0.625 µg/mL
EC50 [15]: 0.863 µg/mL
EC50 [16]: 0.092 µg/mL
EC50 [17]: 0.125 µg/mL
EC50 [18]: 0.263 µg/mL
EC50 [19]: 0.268 µg/mL
IC50 [2]: 0.0288 µg/mL
IC50 [3]: 0.0416 µg/mL
ratio (pH7.4/pH6.0) [4]: 1.44
ratio (pH7.4/pH6.0) [5]: 0.72
IC50 [6]: 0.0586 µg/mL
IC50 [7]: 0.0423 µg/mL

Other lines, results leading:

binding result [8]: binds
binding result [9]: binds
B3: BAP-105-01-03 (antibody, V domains shown)
VH: B4 VH with R98D
VL: B4 VL

binding result [9]: binds
binding result [1]: binds
B5: BAP-105-01-06 (antibody, V domains shown)
VH: B4 VH
VL: B4 VL with H94E
notes: also called BAP-1-5-01-06
